Molecular target: native BnFMO, flavin monooxygenase from Bacillus niacini (Bacillus niacini)
Test: cryo-EM structure

Substance: native BnFMO, flavin monooxygenase from Bacillus niacini (enzyme)
- stoichiometry N: 3
